Numbering of substitutions follows the chain as printed.
B1: 198B9 (antibody, V domains shown)
VH: QVQLVESGGGVVQPGRSLRLSCAASGFTFSNYGMHWVRQAPGKGLEWVAIIWFDGSNKYYVDSVKGRFTISRDNSKNTLFLQMSSLRAEDTAVYYCAREWLQFRYYYGMDVWGQGTTVTVSS
VL: DIQMTQSPSSLSASVGDRVTITCRASQGIRKDLGWYQQKPGKAPKRLIYAASSLQSGVPSRFSGSGSGTEFTLTISSLQPEDFATYVCLQHYRYPFTFGPGTKVDFK
notes: hybridoma mAb
B2: 193E7 (antibody, V domains shown)
VH: QVQLQQWGAGLLKPSETLSLTCAVYGGSFSGYFWTWIRQPPGKGLEWIGEINHSGSTNYNPSLKSRVTISVDTSKNQFSLKLSSVTAADTAVYYCARDYGADYWGQGTLVAVSA
VL: B1 VL with K31N, A50S, S56R, V87Y, Y92K, F96L, P100G, D105E, F106I
notes: hybridoma mAb
B3: 199E3 (antibody, V domains shown)
VH: B2 VH
VL: B1 VL with K31N, Y49S, A50S, S56R, V87Y, Y92K, F96L, P100G, D105E, F106I
notes: hybridoma mAb
B4: 199A7 (antibody, V domains shown)
VH: B1 VH with V61A
VL: B1 VL
notes: hybridoma mAb
B5: 75G3 (antibody, V domains shown)
VH: QVQLQQWGAGLLKPSETLSLTCAVYGGSLSGSYWSWIRQPPGKGLEWIGEINLSGSTNYNPSLKSRVTISVDTSKSQFSLTLRSVTAADTAVYYCARDYGGLDYWGQGTLVTVSS
VL: EIVLTQSPGTLSLSPGERATLSCRARQNVDSSYLAWYQQKPGQAPRLLIYGASSRATGIPDRFSGSGSGTDFTLTISRLEPEDFAVFYCQQYERSPWTFGQGTKVEIK
notes: hybridoma mAb
B6: 74H7 (antibody, V domains shown)
VH: B5 VH with T17P, L29F, S32P, L53H, S76N, T81K, R83T, Y104V, L110T
VL: B5 VL with I2L, R26S, V29I, D30Y, F87Y, Y88C, R94S
notes: hybridoma mAb
B7: 85F7 (antibody, V domains shown)
VH: B5 VH with T17P, L29F, S32P, L53H, S76N, T81K, R83T, Y104V, L110T
VL: B5 VL with I2P, R26S, V29I, D30Y, S32N, F87Y, Y88C, R94S
notes: hybridoma mAb
B8: 74B2 (antibody, V domains shown)
VH: QVQLQQWGAGLLKPSEPLSLTCAVYGGSFSGPYWSWIRQPPGKGLEWIGEINHSGSTNYNPSLTSRVTISVDTSKNQFSLKLTSVTAADSAVYYCARDYGGLDVWGQGTTVTVSS
VL: B5 VL with I2L, R26S, V29I, D30Y, F87Y, Y88C, R94S
notes: hybridoma mAb
B9: 149A1 (antibody, V domains shown)
VH: EVQLVESGGGLVQPGGSLRLSCAASGFTFSSYNMNWVRQAPGKGLEWVSYISRSSNTKHYADSVKGRFTISRDNAKNSLYLQMNSLRDEDTAVYYCARDRSGSYGYFYYYGLDVWGQGTTVTVSS
VL: not shown
notes: hybridoma mAb
B10: 146B6 (antibody, V domains shown)
VH: B9 VH with N84D
VL: not shown
notes: hybridoma mAb
B11: 146A8 (antibody, V domains shown)
VH: B9 VH with Q3K, G16E, A23V, S31N, H59Y, K65R
VL: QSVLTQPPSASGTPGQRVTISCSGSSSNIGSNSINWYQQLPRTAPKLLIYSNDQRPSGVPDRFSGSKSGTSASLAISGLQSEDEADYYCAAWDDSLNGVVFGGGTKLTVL
notes: hybridoma mAb
B12: 218G4 (antibody, V domains shown)
VH: QVQLVESGGGVVQPGRSLRLSCAASGFTFSSYGLHWVRQAPGKGLEWVAVIWYDGSNKYYADSVKGRFTISRDNSKNTLYLQMNSLRVEDTAVYYCANWYYYYYGMDVWGQGTTVTVSS
VL: QSVLTQPPSVSAAPGQKVTISCSGSSSNIGNNYVSWYQQLPGTAPKLLLYDSNKRPSGIPARFSGSKSGTSATLGITGLQTGDEADYYCGTWDSSLNTVVFGGGTKLTVL
notes: hybridoma mAb
B13: 172B12 (antibody, V domains shown)
VH: QVQLVQSGAEVKKPGASVTVSCKASGYTFRSYYMYWVRQAPGQGLEWVGTINPSGGSTDYAQKFQGRVTMTRDTSTSTLYMELNSLRSEDTAVYYCASGWELNYWGQGTLVTVSS
VL: SSELTQDPAVSVALGQTVRITCQGDSLRNYYASWYQQKPGQAPILVIYTKNSRPSGIPDRFSGSTSGNTASLTITGAQAEDEADYYCNSRDSSGNHVVFGGGTKLTVL
notes: hybridoma mAb
B14: 172C3 (antibody, V domains shown)
VH: B13 VH with T19K, D59N
VL: B13 VL with A32V, A77T
notes: hybridoma mAb
B15: 192E4 (antibody, V domains shown)
VH: QVQLVESGGGVVQPGRSLRLSCAASGFTFSSYGMHWVRQAPGKGLEWVAVIWYDGSNKNYVDSVRGRFTISRDNSKNTLYLQMNSLRAEDTAVYYCARDRSVGYDGMDVWGQGTTVTVSS
VL: DIQMTQSPSSLSASVGDRVTITCRASQGIGNYLAWFQQKPGKAPKSLIYVVSSLQSGVPSRFSGSGSGTDFTLTISSLQPEDFATYYCQRYDTYPFTFGPGTKVDIK
notes: hybridoma mAb
B16: 213B3 (antibody, V domains shown)
VH: B15 VH with V61A, R65K, S101T, M107F, V109I, T115M
VL: B15 VL with N31K, Y49S, V50A, V51A, L54V, Q55L, R61K, R90K
notes: hybridoma mAb
B17: 74G6 (antibody, V domains shown)
VH: B15 VH with V61A, R65K, R100G, V102Y, M107L, V109Y, T115L
VL: DIQMTQSPSSLSASVGDRVTITCRASQGIGKYLAWFQQKPGKAPKSLIYTTSSLQSGAPSKFSGSGSGTDFTLTISSLQYEDFATYYCQQYSNYPLTFGGGTKVEIN
notes: hybridoma mAb
B18: 194B7 (antibody, V domains shown)
VH: B15 VH with V61A, R65K, V102K
VL: DIQMTQSPSSLSASVGDRVTITCRASQGISKYLAWFQQKPGKAPKSLIYGASRLQSGVPSKFSGSGSGTDFTLTISSLQPEDFATYYCQHYLNYPLTFGQGTRLEIK
notes: hybridoma mAb
B19: 74C8 (antibody, V domains shown)
VH: B15 VH with V61A, R65K, R100G, V102Y, M107L, V109Y, T115L
VL: B17 VL with S53N
notes: hybridoma mAb
B20: 219H1 (antibody, V domains shown)
VH: B15 VH with S31R, N59H, V61A, R65K, A88G, S101G, D105N
VL: B18 VL with L11Q, K31N, A34D, G50S, R53N, G66R, L92S, Q100G, R103K, L104V
notes: hybridoma mAb
B21: 197G3 (antibody, V domains shown)
VH: B15 VH with A23V, Y32H, V61A, R65K, R100P
VL: B15 VL with Y32H, V50A, V51A, R61K, G66R, T72S, R90Q, D92S, T93N, F96V
notes: hybridoma mAb

Biological target: T1, recombinant, soluble human ASGR-1 (human, UniProt P07306 62-291)
T1 construct: biotinylated in the binning assay; also called soluble huASGR-1; Soluble ASGR-1 (Amgen)
T1 sequence: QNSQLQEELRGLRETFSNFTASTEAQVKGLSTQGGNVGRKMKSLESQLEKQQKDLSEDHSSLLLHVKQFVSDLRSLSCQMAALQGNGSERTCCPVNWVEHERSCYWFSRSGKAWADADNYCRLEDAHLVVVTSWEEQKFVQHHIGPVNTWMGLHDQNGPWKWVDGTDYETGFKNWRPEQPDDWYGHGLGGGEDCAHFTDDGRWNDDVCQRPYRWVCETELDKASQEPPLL
Assay: Octet BLI dissociation, pH 7.4 minus calcium
Method in brief: (§1)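 Antibodies were captured on anti-human Fc biosensors, and soluble ASGR-1 (6 ug/ml) was associated for 2 min in Tris buffer containing 1 mM CaCl2 at pH 7.4, followed by 10 min dissociation under each test condition. The signal at the end of association was set as 100%. Percent ASGR-1 still bound after 1 min of dissociation was compared with the pH 7.4 plus calcium control, and >10% extra dissociation was scored as sensitive.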

Binder	% Change Compared to pH 7.4 + Calcium [%]
B1	3
B2	-9
B3	-5
B4	1
B5	-1
B6	1
B7	2
B8	8
B9	2
B10	2
B11	2
B12	1
B13	-14
B14	-9
B15	-2
B16	-1
B17	1
B18	1
B19	1
B20	2
B21	2

Biological target: T1, recombinant, soluble human ASGR-1
Assay: Octet BLI dissociation, pH 5.6 plus calcium
Method in brief: as §1

Binder	% Change Compared to pH 7.4 + Calcium [%]
B1	2
B2	-9
B3	-4
B4	1
B5	-1
B6	-2
B7	-2
B8	-9
B9	-7
B10	-5
B11	-9
B12	-4
B13	-27
B14	-26
B15	-9
B16	-7
B17	-9
B18	-4
B19	-7
B20	-3
B21	-3

Biological target: T1, recombinant, soluble human ASGR-1
Assay: Octet BLI dissociation, pH 5.6 minus calcium
Method in brief: as §1

Binder	% Change Compared to pH 7.4 + Calcium [%]
B1	11
B2	-4
B3	-4
B4	10
B5	2
B6	1
B7	2
B8	-5
B9	9
B10	13
B11	25
B12	0
B13	-13
B14	0
B15	-8
B16	-3
B17	-4
B18	-4
B19	-3
B20	1
B21	-3

Reference: patent US20190248902A1 (published 2019)
